Patent US20250377350A1

Target: NY-ESO-1 157-165 peptide … presented on HLA-A*0201 (human)
Test: cell-based or functional assay

TCR1G4 (specific for the NY-ESO-1 157-165 … antigen), displayed on TnT cells
mRuby2 (STAT5-mRuby2 reporter) expression in peptide-pulsed ACDC-HLA cells after co-culture with TnT-TCR1G4 cells: 29% | mRuby2+ cells of the monoclonal ACDC-HLA (A*0201) line (Clone 3, …-pulsed) after co-culture with TnT-TCR1G4 cells: 46.7%
